Article PMC2939854 (2010)

Target: GLP-1 receptor (Rattus norvegicus) (UniProt P32301)
Experiment: competitive cellular ELISA against GLP-1/hIgG2 (INS-1 cells)

Chain of GLP-1 receptor (Rattus norvegicus) (P32301 22-463): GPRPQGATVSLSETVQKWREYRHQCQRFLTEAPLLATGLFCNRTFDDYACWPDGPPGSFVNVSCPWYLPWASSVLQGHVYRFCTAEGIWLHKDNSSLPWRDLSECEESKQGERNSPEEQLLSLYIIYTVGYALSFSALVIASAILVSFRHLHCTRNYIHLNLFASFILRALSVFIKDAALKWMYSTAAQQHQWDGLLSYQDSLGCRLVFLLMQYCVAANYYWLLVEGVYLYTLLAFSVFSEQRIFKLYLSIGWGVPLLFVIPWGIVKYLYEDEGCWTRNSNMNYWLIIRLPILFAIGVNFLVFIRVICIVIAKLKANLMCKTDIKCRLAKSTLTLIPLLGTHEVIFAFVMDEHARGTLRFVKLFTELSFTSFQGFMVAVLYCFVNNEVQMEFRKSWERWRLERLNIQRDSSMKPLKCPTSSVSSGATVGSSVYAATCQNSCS
Chain of Exendin-4 (P26349 48-86): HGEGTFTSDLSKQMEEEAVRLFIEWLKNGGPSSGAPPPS

Exendin-4 (from UniProt P26349) showed an IC50 of 8.15 nM.
